Results taken from US20160039936A1, “FIBROBLAST GROWTH FACTOR RECEPTOR INHIBITION FOR THE TREATMENT OF DISEASE” (UNIVERSITY OF MIAMI, priority 2011, published 2016).

B1: FGF23: recombinant mouse FGF23, 6His-tagged Tyr25-Val251 (Arg179Gln) (R&D Systems) (protein)
chain: YPDTSPLLGSNWGSLTHLYTATARTSYHLQIHRDGHVDGTPHQTIYSALMITSEDAGSVVITGAMTRRFLCMDLHGNIFGSLHFSPENCKFRQWTLENGYDVYLSQKHHYLVSLGRAKRIFQPGTNPPPFSQFLARRNEVPLLHFYTVRPRRHTQSAEDPPERDPLNVLKPRPRATPVPVSCSRELPSAEEGGPAASDPLGVLRRGRGDARGGAGGADRCRPFPRFV
modifications: left off: small tags and cut ends
B2: FGF2: recombinant mouse FGF2 (Ala11-Ser154) (R&D Systems) (protein)
chain: ALPEDGGAAFPPGHFKDPKRLYCKNGGFFLRIHPDGRVDGVREKSDPHVKLQLQAEERGVVSIKGVCANRYLAMKEDGRLLASKCVTEECFFFERLESNNYNTYRSRKYSSWYVALKRTGQYKLGSKTGPGQKAILFLPMSAKS

Tests used:
[1] = biological target: T1, FGFR4 (Rattus norvegicus, UniProt Q498D6); assay: Binding of PLCγ to FGFR4 in NRVM (immunoprecipitation); type: cell-based; conditions: 30 minutes, vs PBS or FGF2
T1 construct: endogenous in cells; host or cells: isolated neonatal rat ventricular myocytes (NRVM)
T1 sequence (Q498D6 17-800): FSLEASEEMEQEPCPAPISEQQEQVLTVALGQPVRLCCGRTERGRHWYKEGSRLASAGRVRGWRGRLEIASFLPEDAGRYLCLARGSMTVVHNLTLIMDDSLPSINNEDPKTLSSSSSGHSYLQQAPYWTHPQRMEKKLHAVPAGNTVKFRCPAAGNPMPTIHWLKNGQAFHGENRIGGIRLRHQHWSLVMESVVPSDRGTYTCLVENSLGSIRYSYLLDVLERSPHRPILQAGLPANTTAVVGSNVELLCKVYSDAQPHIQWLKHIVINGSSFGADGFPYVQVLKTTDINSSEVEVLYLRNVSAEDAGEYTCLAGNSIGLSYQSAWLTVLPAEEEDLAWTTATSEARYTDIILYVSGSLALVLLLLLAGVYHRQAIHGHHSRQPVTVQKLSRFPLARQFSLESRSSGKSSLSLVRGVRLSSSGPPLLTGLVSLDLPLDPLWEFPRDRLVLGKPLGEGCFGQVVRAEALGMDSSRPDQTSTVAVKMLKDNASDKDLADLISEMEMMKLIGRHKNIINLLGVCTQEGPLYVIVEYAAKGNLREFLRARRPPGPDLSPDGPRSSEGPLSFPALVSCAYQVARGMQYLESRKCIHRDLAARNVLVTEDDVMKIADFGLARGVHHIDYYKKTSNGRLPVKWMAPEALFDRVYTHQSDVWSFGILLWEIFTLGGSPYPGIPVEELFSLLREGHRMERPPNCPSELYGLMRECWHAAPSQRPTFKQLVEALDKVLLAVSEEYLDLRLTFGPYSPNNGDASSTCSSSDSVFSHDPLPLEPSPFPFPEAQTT
Method: HEK293 cells in 10 cm-dishes were treated with growth factors for 30 minutes, cells were scraped using 1 ml IP buffer (50 mM Tris-HCl pH7.5, 150 mM NaCl, 5 mM MgCl2, 2 mM EGTA, 1% Triton X-100, 5% Glycerol, protease and phosphatase inhibitors), and protein lysates were prepared as described above. V5-tagged proteins were immunoprecipitated using 25 μl of anti-V5 agarose beads (Sigma-Aldrich). After 5 washes in IP buffer, proteins were eluted in 100 μl of sample buffer and analyzed by SDS-PAGE and immunoblotting. For endogenous immunoprecipitation studies from NRVM, cells in 10cm-dishes were treated with growth factors for 30 minutes. Some cells were pre-treated with FGFR4 blocking antibody at 10 μg/ml for 1 hour (human monoclonal, U3-11; U3Pharma). […] We added 50 μl of a 1:1 mix of Protein A on sepharose beads and Protein G on agarose beads that were previously equilibrated in RIPA buffer, followed by incubation at 4° C. under rotation for 2 hours, protein elution in sample buffer, and SDS-PAGE and Western blot analyses.

[2] = test system: HEK293 cells; assay: FGF-FGFR-dependent signaling in HEK293 cells (Western blot, immunoprecipitation); type: cell-based; conditions: HEK293 expressing wild-type FGFR4, within 6 hours
[3] = test system: isolated NRVM; assay: Ras/MAPK signaling (phospho-FRS2α, phospho-ERK1/2) Western blot in NRVM; type: cell-based, rat; conditions: 30 minutes, FGF alone
Method: HEK293 cells, NRVM or NMVM were treated with growth factors for 30 minutes to analyze activation of signal transduction mediators, or for 48 hours to analyze expression levels of hypertrophic marker proteins. Cells were scraped from 6-well plates using 500 μl CHAPS extraction buffer (20 mM Tris-HCl pH7.5, 500 mM NaCl, 0.5% CHAPS, protease inhibitor cocktail (Roche), protein phosphatase inhibitors [Sigma-Aldrich]) and incubated on ice for 30 minutes. The cell lysate was centrifuged at 14,000 rpm and 4° C. for 30 minutes, and the supernatant boiled in sample buffer and analyzed by SDS-PAGE and immunoblotting. For protein extraction from mouse hearts, tissue was isolated, minced and homogenized in RIPA extraction buffer (50 mM Tris-HCl pH 7.5, 200 mM NaCl, 1% Triton X-100, 0.25% DOC, 1 mM EDTA, 1 mM EGTA, protease and phosphatase inhibitors) at 1:10 (w:v), and protein lysates were prepared as described above. […]

Molecule | levels of co-purified FGFR4 in anti-PLCγ eluates [1] | RCAN1-4 levels [2] | levels of phosphorylated FRS2α and ERK1/2 [3]
B1 | elevated | increases | 
B2 |  |  | increased
